Assay [1] deals with CHOK1/mito12mutCly cell line. Nature of the assay: ATP-stimulated luminescence in CHOK1/mito12mutCly cell line (CCD camera). The assay is classed as cell-based. The conditions noted are these: ATP stimulation, 2.5 or 5 μM coelenterazine. The protocol:
Clone Selection Process: • CHO-K1 were transfected with pcDNA3Neo^−/MITO-hMutated-clytin or pcDNA3Neo^−/CYTO-hMutated-clytin. • 48 h after transfection, the transfected cells were plated in 10×96 w/p in complete DMEM. • At confluence the 10×96 w/p were duplicated in 10 white plates. 3 1/2 hours before measurements, medium was replaced with 50 μl/well of tyrode (2 mM Ca^2+ and coelenterazine 10 μM). • Positive clones were selected evaluating: • First selection was done lysing cells with TRITON X-100. CCD camera conditions: low sensitivity, integration time 1 second reading for 5 seconds. • Five clones were chosen each diluted in 3×96 w/p. • At confluence the 15×96 w/p were duplicated in 15 white plates. […] CCD camera conditions: low sensitivity, integration time 1 second reading for 30 seconds for the ATP measurement followed by 30 seconds for TRITON X-100. • Four limiting dilutions of the best clone selected were performed, 0.3 cells per well in 10×96 w/p. • The final clone was chosen after the 4th LD selected with ATP 0.25 μM, coelenterazine 5 μM. • Complete optimization of the assay was performed on the best responding clone.
CHO cells are seeded at different cell densities in 384MTP (500, 750, 1,000, 1,500 cells/well) in growth media supplemented as above and measured with a CCD camera 24 hours and 48 hours after plating. […]

Assay [2] is described as follows: In vitro transcription and translation, light emission upon calcium injection. Format: biochemical. The conditions noted are these: translation mixture, 5 μM CaCl2 injected, luminescence recorded 10 seconds; comparison among the 8 mutants (FIG. 2). On the procedure: Translation of the photoproteins was carried out in the rabbit reticulocyte cell-free system (TNT Quick coupled kit, Promega), following the general instructions of the supplier. 500 ng of DNA was used for each in vitro transcription/translation reaction mix. The reaction volume (10 μl) included 8 μl of TNT T7 Quick Master Mix, 1.6 μl of DNA, 0.2 μl of the Methionine buffer and 0.2 μl of Coelenterazine (0.5 mM). To this end, 5 μl from each sample of the translation mixture were tested for light emission by the injection of calcium solution and by measuring at the Ascent Luminoskan (Labsystems).
5 μl of the translation mixture were directly mixed with 95 μl of PBS solution in a 96 well plate which was mounted into the Luminometer (Berthold). To trigger photoprotein light emission, a 5 μM CaCl2 solution was injected into the well and luminescence recorded for 10 seconds.

Assay [3] can be described thus: Recombinant photoprotein light emission upon 1 mM calcium injection. Format: biochemical. The conditions noted are these: 1 mM CaCl2 (FIG. 6). On the procedure: For the production of the recombinant protein we followed a small scale protein purification protocol under native conditions. Due to the presence of an N-terminal His tag in our constructs, we decided to purify the expressed proteins on Ni-NTA Spin Columns (Qiagen) following the suppliers' protocol.
In order to evaluate the response of the photoprotein to different calcium concentrations, 0.05 ng/well (96 MTP) of the recombinant protein were charged with Coelenterazine 10 μM overnight at 4° C.
After incubation, different concentrations of CaCl2 were injected and the light released was measured at the Ascent Luminoskan with an integration time of 20 ms for a total time of 10 seconds.
Recombinant photoproteins corresponding to some mutants were produced under native conditions following a small scale purification protocol.
In another experiment, the recombinant photoprotein 25N03b was compared to recombinant Aequorin.

B1: 12mutCly: mutant Clytin photoprotein 12mutCly (SEQ ID NO: 19), expressed in CHOK1 cells (protein)
chain: MADTASKYAVKLRPNFDNPKWVNRHKFMFNFLDINGDGKITLDEIVSKASDDICAKLEATPEQTKRHQVCVEAFFRGCGMEYGKEIAFPQFLDGWKQLATSELKKWARNEPTLIREWGDAVFDIFDKDGSGSISLDEWKAYGRISGICSSDEDAEKTFKHCDLDNSGKLDVDEMTRQHLGFWYTLDPNADGLYGNFVP
Turning to B1, the “light emission and sensitivity to Ca2+ in cells” value in assay [1] was “high light emission and sensitivity to Ca^2+”.

B2: 25N03b: mutant Clytin photoprotein from random mutagenesis, clone 25N03b (sequence ID no 16) (protein)
chain: MADTASKYAVKLRPNFDNPKWVNRHKFMFNFLDINGDGKITLDEIVSKASDDICAKLGATPEQTKRHQDAVEAFFKKIGMDYGKEVEFPAFVDGWKELANYDLKLWSQNKKSLIRDWGEAVFDIFDKDGSGSISLDEWKAYCRISGICSSDEDAEKTFKHCDLDNSGKLDVDEMTRQHLGFWYTLDPNADGLYGNFVP
B2: in assay [2], the “light emission of in vitro translated mutants upon calcium injection” value is “best responding mutant”. Moreover, in assay [3], the “light emission recorded upon 1 mM CaCl2 injection, compared to recombinant Aequorin” value is recorded as “surprisingly higher”.

These data come from patent US7981602B2, “Photoproteins with enhanced bioluminescence and assays using the same” (AXXAM S.R.L., priority 2005, dated 2011).
